# Measurements: patent publication US20220177587A1, “METHODS AND USES OF VARIANT CD80 FUSION PROTEINS AND RELATED CONSTRUCTS” (Alpine Immune Sciences, Inc., priority 2018, published 2022)
# B1: E35D/M47V/N48KN68M/K89N (protein)
# chain: VIHVTKEVKEVATLSCGHNVSVEELAQTRIYWQKDKKMVLTMMSGDVKIWPEYKNRTIFDITNNLSIMILALRPSDEGTYECVVLKYENDAFKREHLAEVTLSVKAD
# B2: V68M (protein)
# chain: VIHVTKEVKEVATLSCGHNVSVEELAQTRIYWQKEKKMVLTMMSGDMNIWPEYKNRTIFDITNNLSIMILALRPSDEGTYECVVLKYEKDAFKREHLAEVTLSVKAD
# B3: L85Q (protein)
# chain: VIHVTKEVKEVATLSCGHNVSVEELAQTRIYWQKEKKMVLTMMSGDMNIWPEYKNRTIFDITNNLSIVILALRPSDEGTYECVVQKYEKDAFKREHLAEVTLSVKAD
# B4: E35D/L85Q/K93I/E95V/L97Q (protein)
# chain: VIHVTKEVKEVATLSCGHNVSVEELAQTRIYWQKDKKMVLTMMSGDMNIWPEYKNRTIFDITNNLSIVILALRPSDEGTYECVVQKYEKDAFTRVHQAEVTLSVKAD
# B5: E35D/M47V/N48KN68M/L85M (protein)
# chain: VIHVTKEVKEVATLSCGHNVSVEELAQTRIYWQKDKKMVLTMMSGDVKIWPEYKNRTIFDITNNLSIMILALRPSDEGTYECVVMKYEKDAFKREHLAEVTLSVKAD
# B6: E35D/M47V/N48KN68M/A71G/L85M (protein)
# chain: VIHVTKEVKEVATLSCGHNVSVEELAQTRIYWQKDKKMVLTMMSGDVKIWPEYKNRTIFDITNNLSIMILGLRPSDEGTYECVVMKYEKDAFKREHLAEVTLSVKAD
# B7: N48K/K89N (protein)
# chain: VIHVTKEVKEVATLSCGHNVSVEELAQTRIYWQKEKKMVLTMMSGDMKIWPEYKNRTIFDITNNLSIVILALRPSDEGTYECVVLKYENDAFKREHLAEVTLSVKAD
# B8: E35D/M47LN68M/A71G/L85Q/D90G (protein, UniProt P33681 35-288, looked up, variant E35D M47L V68M A71G L85Q D90G)
# T-lymphocyte activation …: VIHVTKEVKEVATLSCGHNVSVEELAQTRIYWQKDKKMVLTMMSGDLNIWPEYKNRTIFDITNNLSIMILGLRPSDEGTYECVVQKYEKGAFKREHLAEVTLSVKADFPTPSISDFEIPTSNIRRIICSTSGGFPEPHLSWLENGEELNAINTTVSQDPETELYAVSSKLDFNMTTNHSFMCLIKYGHLRVNQTFNWNTTKQEHFPDNLLPSWAITLISVNGIFVICCLTYCFAPRCRERRRNERLRRESVRPV
# B9: H18Y/A26P/E35D/M47V/V68M/A71G (protein, UniProt P33681 35-288, looked up, variant H18Y A26P E35D M47V V68M A71G)
# T-lymphocyte activation …: VIHVTKEVKEVATLSCGYNVSVEELPQTRIYWQKDKKMVLTMMSGDVNIWPEYKNRTIFDITNNLSIMILGLRPSDEGTYECVVLKYEKDAFKREHLAEVTLSVKADFPTPSISDFEIPTSNIRRIICSTSGGFPEPHLSWLENGEELNAINTTVSQDPETELYAVSSKLDFNMTTNHSFMCLIKYGHLRVNQTFNWNTTKQEHFPDNLLPSWAITLISVNGIFVICCLTYCFAPRCRERRRNERLRRESVRPV
# B10: H18V/E35D/M47V/V68M/A71G/D90G (protein, UniProt P33681 35-288, looked up, variant H18V E35D M47V V68M A71G D90G)
# T-lymphocyte activation …: VIHVTKEVKEVATLSCGVNVSVEELAQTRIYWQKDKKMVLTMMSGDVNIWPEYKNRTIFDITNNLSIMILGLRPSDEGTYECVVLKYEKGAFKREHLAEVTLSVKADFPTPSISDFEIPTSNIRRIICSTSGGFPEPHLSWLENGEELNAINTTVSQDPETELYAVSSKLDFNMTTNHSFMCLIKYGHLRVNQTFNWNTTKQEHFPDNLLPSWAITLISVNGIFVICCLTYCFAPRCRERRRNERLRRESVRPV
# B11: H18Y/E35D/M47V/V68M/A71G (protein, UniProt P33681 35-288, looked up, variant H18Y E35D M47V V68M A71G)
# T-lymphocyte activation …: VIHVTKEVKEVATLSCGYNVSVEELAQTRIYWQKDKKMVLTMMSGDVNIWPEYKNRTIFDITNNLSIMILGLRPSDEGTYECVVLKYEKDAFKREHLAEVTLSVKADFPTPSISDFEIPTSNIRRIICSTSGGFPEPHLSWLENGEELNAINTTVSQDPETELYAVSSKLDFNMTTNHSFMCLIKYGHLRVNQTFNWNTTKQEHFPDNLLPSWAITLISVNGIFVICCLTYCFAPRCRERRRNERLRRESVRPV
# B12: E35D/D46V/M47L/V68M/L85Q/E88D GS(G4S)3 (protein, UniProt P33681 35-288, looked up, variant E35D D46V M47L V68M L85Q E88D)
# T-lymphocyte activation …: VIHVTKEVKEVATLSCGHNVSVEELAQTRIYWQKDKKMVLTMMSGVLNIWPEYKNRTIFDITNNLSIMILALRPSDEGTYECVVQKYDKDAFKREHLAEVTLSVKADFPTPSISDFEIPTSNIRRIICSTSGGFPEPHLSWLENGEELNAINTTVSQDPETELYAVSSKLDFNMTTNHSFMCLIKYGHLRVNQTFNWNTTKQEHFPDNLLPSWAITLISVNGIFVICCLTYCFAPRCRERRRNERLRRESVRPV
# modifications: GS(G4S)3 linker
# How the values were obtained:
# CD28 [1] = target: T1, CD28 (Homo sapiens, UniProt P10747); assay: Flow binding to Jurkat/IL2 reporter cells (CD28); parameters: host or cells: Jurkat cells expressing an IL-2-luciferase reporter
# Method: (§1) Binding of selected immunomodulatory fusion proteins to cognate binding partners was assessed. […] Cells were sorted in a Bio-Rad S3 Cell Sorter (Bio-Rad Corp., USA) to >98% purity. Jurkat/IL2 reporter cells, which endogenously express CD28, were used to detect binding to CD28.
# (§2) For staining and analysis by flow cytometry, 100,000 cells of appropriate transfected cells were plated in 96-well round bottom plates. Cells were spun down and resuspended in staining buffer (phosphate buffered saline (PBS), 1% bovine serum albumin (BSA), and 0.1% sodium azide) for 20 minutes to block non-specific binding. […] Primary staining was performed on ice for 45 minutes, before washing cells in staining buffer twice. Phycoerythrin (PE)-conjugated anti-human Fc (Jackson ImmunoResearch, USA) was diluted 1:150, added to cells and incubated another 30 minutes on ice. Cells were then washed twice with 150 μL/well stain buffer, fixed in 2% formaldehyde/PBS, and analyzed on Intellicyt flow cytometer (Intellicyt Corp., USA). PE Mean Fluorescence Intensity (MFI) was calculated for each cell type with FlowJo Version 10 software (FlowJo LLC, USA).
# (§3) Binding assays were carried out to assess the specificity and affinity of multivalent proteins to cell-expressed CTLA-4, CD28, and PD-L1 counter structures.
# (§4) The EC50 for binding also was determined.
# huCTLA4 = huCTLA4 (Homo sapiens, UniProt P16410); assay: Flow binding to CHO cells stably expressing CTLA4; parameters: huCTLA4 and huPD-L1, full-length mammalian surface expression constructs were generated; expressed in transfected cells; host or cells: CHO cells, lentiviral transduction, sorted to >98% purity; details: for CTLA4 MFI at 33.3 nM: CHO cells stably expressing CTLA4
# huCTLA4, sequence (P16410 36-223): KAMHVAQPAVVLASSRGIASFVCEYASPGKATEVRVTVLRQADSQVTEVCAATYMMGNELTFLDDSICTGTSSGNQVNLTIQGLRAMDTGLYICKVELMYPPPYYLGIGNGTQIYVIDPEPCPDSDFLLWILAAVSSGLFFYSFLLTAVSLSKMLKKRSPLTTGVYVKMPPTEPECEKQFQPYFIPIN
# Method: as §1, §2, §3, §4
# huPD-L1 = huPD-L1 (Homo sapiens, UniProt Q9NZQ7); assay: Flow binding to CHO cells stably expressing PD-L1; parameters: huCTLA4 and huPD-L1, full-length mammalian surface expression constructs were generated; expressed in transfected cells; host or cells: CHO cells, lentiviral transduction, sorted to >98% purity; details: for PD-L1 MFI at 33.3 nM: CHO cells stably expressing PD-L1
# huPD-L1, sequence (Q9NZQ7 19-290): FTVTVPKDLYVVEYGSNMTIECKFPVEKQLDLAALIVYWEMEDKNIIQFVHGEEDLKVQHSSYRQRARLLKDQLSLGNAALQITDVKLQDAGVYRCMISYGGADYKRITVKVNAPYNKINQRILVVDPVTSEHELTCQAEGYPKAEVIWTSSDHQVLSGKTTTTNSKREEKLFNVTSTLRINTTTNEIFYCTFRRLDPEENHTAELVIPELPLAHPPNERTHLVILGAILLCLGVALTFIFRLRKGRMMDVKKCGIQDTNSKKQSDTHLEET
# Procedure, shortened: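 Fusion proteins bound to CHO cells stably expressing CTLA4 or PD-L1, or to Jurkat/IL2 reporter cells with endogenous CD28, for 45 min on ice after blocking in PBS/1% BSA. Detection with PE anti-human Fc by flow cytometry; PE MFI per cell type and binding EC50 determined.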
# CD28 [2] = target: T1, CD28; assay: Jurkat/IL2 + CHO/OKT3 +/- PD-L1 reporter assay: PD-L1-dependent CD28 costimulation; type: cell-based; parameters: host or cells: Jurkat cells expressing an IL-2-luciferase reporter; details: Jurkat/IL2 + CHO/OKT3/PD-L1, 5.0 nM
# Procedure, shortened: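 Jurkat reporter cells (100,000/well) preincubated 15 min at room temperature with test protein, then cocultured 5 h at 37 °C with CHO aAPCs bearing anti-CD3 scFv (OKT3) with or without PD-L1. Luciferase luminescence (RLU) read after lysis-substrate addition.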
# [3] = Table E4, 33.3 nM, Jurkat cells (CD28)
# [4] = Table E4, MFI ratio to WT CD80 ECD-Fc (R&D) at 33.3 nM
# [5] = Table E4, 33.3 nM variant CD80 IgV-Fc
# [6] = Table E4, binding to PD-L1 compared to binding to CD28
# [7] = Table E19, Jurkats (CD28), 33.3 nM
# [8] = Table E11, 33.3 nM, listed as WT CD80 ECD-Fc = 1.0
# [9] = Table E11, Jurkats (CD28), 33.3 nM
# [10] = Table E23, CD80 IgV-Fc (inert) at 33.3 nM, Jurkat (CD28)
# [11] = Table E23, CD80 IgV-Fc (inert) at 33.3 nM
molecule,measurement,setting,value
B1,CD28 MFI at 33.3 nM,CD28 [1]; [3],11736
same,CD28 Fold change to WT CD80,CD28 [1]; [4],0.65
same,CTLA4 MFI at 33.3 nM,huCTLA4; [5],807
same,CTLA4 Fold change to WT CD80,huCTLA4; [4],0.01
same,PD-L1 MFI at 33.3 nM,"huPD-L1; Table E4, 33.3 nM",89775
same,PD-L1 Fold change to WT CD80,huPD-L1; [4],7.56
same,Ratio of PDL1:CD28,huPD-L1; [6],8
B2,CD28 MFI at 33.3 nM,CD28 [1]; [7],37.9
same,CTLA4 MFI at 33.3 nM,"huCTLA4; Table E19, 33.3 nM",568
same,PD-L1 MFI at 33.3 nM,"huPD-L1; Table E19, 33.3 nM",118
B3,CD28 MFI at 33.3 nM,CD28 [1]; [7],35
same,CTLA4 MFI at 33.3 nM,"huCTLA4; Table E19, 33.3 nM",3002
B4,CD28 MFI at 33.3 nM,CD28 [1]; [3],400
same,CD28 Fold change to WT CD80,CD28 [1]; [4],0.02
same,CTLA4 MFI at 33.3 nM,huCTLA4; [5],246401
same,CTLA4 Fold change to WT CD80,huCTLA4; [4],1.57
same,PD-L1 MFI at 33.3 nM,"huPD-L1; Table E4, 33.3 nM",19880
same,PD-L1 Fold change to WT CD80,huPD-L1; [4],1.67
same,Ratio of PDL1:CD28,huPD-L1; [6],50
B5,CD28 Fold change to WT CD80,CD28 [1]; [8],7.8
same,CD28 MFI at 33.3 nM,CD28 [1]; [9],245
same,CTLA4 Fold change to WT CD80,huCTLA4; [8],8.9
same,CTLA4 MFI at 33.3 nM,"huCTLA4; Table E11, 33.3 nM",15581
same,PD-L1 Fold change to WT CD80,huPD-L1; [8],147.9
same,PD-L1 MFI at 33.3 nM,"huPD-L1; Table E11, 33.3 nM",7618
same,Ratio of PDL1:CD28,"huPD-L1; Table E11, MFI at 33.3 nM",31.1
B6,CD28 Fold change to WT CD80,CD28 [1]; [8],9.6
same,CD28 MFI at 33.3 nM,CD28 [1]; [9],302
same,CTLA4 Fold change to WT CD80,huCTLA4; [8],9.5
same,CTLA4 MFI at 33.3 nM,"huCTLA4; Table E11, 33.3 nM",16604
same,PD-L1 Fold change to WT CD80,huPD-L1; [8],442.1
same,PD-L1 MFI at 33.3 nM,"huPD-L1; Table E11, 33.3 nM",22770
same,Ratio of PDL1:CD28,"huPD-L1; Table E11, MFI at 33.3 nM",75.4
B7,CD28 MFI at 33.3 nM,CD28 [1]; [7],170
same,CTLA4 MFI at 33.3 nM,"huCTLA4; Table E19, 33.3 nM",4370
B8,CD28 MFI at 33.3 nM,"CD28 [1]; Table E14, Jurkats (CD28), 33.3 nM",1400
same,CTLA4 MFI at 33.3 nM,"huCTLA4; Table E14, 33.3 nM",10332
B9,CD28 MFI at 33.3 nM,CD28 [1]; [10],6911
same,"Relative Luciferase Units (RLU), CD80 Conc 5.0 nM",CD28 [2]; Table E24,821 RLU
same,PD-L1 MFI at 33.3 nM,huPD-L1; [11],51521
B10,CD28 MFI at 33.3 nM,CD28 [1]; [10],2115
same,"Relative Luciferase Units (RLU), CD80 Conc 5.0 nM",CD28 [2]; Table E24,854 RLU
same,PD-L1 MFI at 33.3 nM,huPD-L1; [11],43588
B11,CD28 MFI at 33.3 nM,CD28 [1]; [10],3227
same,"Relative Luciferase Units (RLU), CD80 Conc 5.0 nM",CD28 [2]; Table E24,963 RLU
same,PD-L1 MFI at 33.3 nM,huPD-L1; [11],64919
B12,CD28 MFI at 33.3 nM,"CD28 [1]; Table E25, linker variants, 33.3 nM, Jurkats (CD28)",267
same,"Relative Luciferase Units (RLU), CD80 Conc 5.0 nM","CD28 [2]; Table E26, linker variants",1592 RLU
same,PD-L1 MFI at 33.3 nM,"huPD-L1; Table E25, linker variants, 33.3 nM",22596
